Experimental findings from US12673985B2, “Method for the treatment or prophylaxis of cancer by targeting the extracellular portion of keratin 14 (KRT14) residing on cancer cells” (Hudson Institute of Medical Research, priority 2019, dated 2026) are described below.

“Also recorded” adds a separate entry of the source.

The test system of data set [1] is MDA-MB-468 breast carcinoma. The data set is described as follows: In vitro wound repair assay. The data set is classed as cell-based. The following applies: mAb 1 μg/ml; 16 hrs. As for the experimental part:
(§1) In vitro wound repair assay. Ovarian cancer cells (or other cancer cell lines—BT16, NCI-H1573, AN3CA, SW620 and MDA-MB-468) were grown in complete medium to confluency in a 12-well plate, then serum-starved overnight to synchronize at G0. The following day cell culture medium was removed, and cell monolayers were wounded by scraping with a pipette tip attached to suction. Non-adherent cells were removed by gentle washes with PBS, and complete growth medium with or without mAb AN-17 (1 μg/ml) or commercial KRT14 polyclonal antibody (1 μg/ml) was replaced. The wound area was imaged under a phase microscope (Leica) at regular intervals ranging from 0-72 h. Wound closure was measured in image series using AnalySIS LS Research Software (Olympus) to determine the area of the wound on each day. Experiments were repeated in triplicate with at least six wound areas observed per growth condition.
(§2) In vitro wound repair assays were conducted on the following cancer cell lines: BT16 atypical teratoid rhabdoid (brain) carcinoma, NCI-H1573 lung adenocarcinoma, SJ-GBM2 primary glioblastoma multiforme, AN3CA endometrial carcinoma, SW620 colorectal carcinoma and MDA-MB-468 breast carcinoma. Cells were grown in complete medium to confluency in a 12-well plate, and subsequently serum-starved overnight to synchronize at G0. The following day, cell culture medium was removed and the cell monolayers were wounded by scraping with a pipette tip attached to suction. Non-adherent cells were removed by gentle washes with phosphate buffered saline (PBS) and complete growth medium was added to each well, in either the absence or presence of mAb AN-17 (at 1 μg/ml). The wound area was imaged every hour for 0-24 hours. Wound closure was measured in image series using AnalySIS LS Research Software (Olympus) to determine the area of the wound on each day. Experiments were repeated in triplicate with at least six wound areas observed per growth condition.

The subject of data set [2] is BT16 atypical teratoid rhabdoid (brain) carcinoma. The data set is described as follows: In vitro wound repair assay. The data set is classed as cell-based. Conditions: mAb 1 μg/ml; 16 hrs. How it is done: as §1, §2
Data set [3] relates to NCI-H1573 lung adenocarcinoma. The data set is described as follows: In vitro wound repair assay. The data set is classed as cell-based. The following applies: mAb 1 μg/ml; 16 hrs. How it is done: as §1, §2
The nature of data set [4]: Tissue distribution and clearance by fluorescence in mice without tumours. The data set is classed as in vivo. The text has this:
Control mice received vehicle (PBS) alone.

Data set [5] in a line: Assessment of mAb AN-17 toxicity, single intraperitoneal dose. The data set is classed as in vivo, mice. How it is done: Doses of 0.5, 1.0. 2.5, 5.0 and 10 mg/kg were assessed. After 7 days mice were culled, and examined post mortem for any evidence of toxicity (macroscopic tissue appearance, presence of inflammation, or any obvious lesions).
In data set [6] the test system is SW620 colorectal carcinoma. The data set is described as follows: In vitro wound repair assay. The data set is classed as cell-based. Conditions: antibody 1 μg/ml; 16 hours. How it is done: as §1
(§3) In vitro wound repair assays were conducted using AN3CA endometrial carcinoma and SW620 colorectal carcinoma lines. Cells were grown in complete medium to confluency in a 12-well plate, then serum-starved overnight to synchronize at G0. The following day cell culture medium was removed, and cell monolayers were wounded by scraping with a pipette tip attached to suction. […] Wound closure was measured in image series using AnalySIS LS Research Software (Olympus) to determine the area of the wound on each day. […]

Data set [7] deals with AN3CA endometrial carcinoma. The data set is described as follows: In vitro wound repair assay. The data set is classed as cell-based. Conditions: antibody 1 μg/ml; 16 hours. How it is done:
as §1, §3

For a further data set, the system named is ID8 ovarian tumour. The following applies: mouse, in vivo.

Method for ID8 ovarian tumour: Control mice received vehicle (PBS) alone. At time points from 4 hr to 7 days post-injection, mice were culled and selected tissues (liver, kidney, spleen, intestine, ovary+fallopian tube/ovarian tumour (as relevant), brain, heart, lung) were harvested. Tissue distribution and clearance were assessed by ALEXA647 or ALEXA750 fluorescence using an IVIS Lumina III Imaging System (Perkin Elmer). Bright-field (auto-exposure) and fluorescence imaging (ALEXA647 ex640, em670; or ALEXA750 ex740, em790 nm). Spectral unmixing and image analysis were performed as previously described (PMID: 30602661; Wilson et al., Cancers (Basel). 2018 Dec. 31; 11(1), E32). Background average radiant efficiency from vehicle-treated animals were subtracted from fluorescence measurements in each case, and the resulting data plotted for comparison.

B1: mAb AN-17: monoclonal anti-KRT14 antibody; heavy chain variable region SEQ ID NO:3, light chain variable region SEQ ID NO:5 (clone AN-17A RG4.E5b.A7.B4) (antibody, listed as Mus musculus, V domains shown)
VH: QVQLKESGPGLVAPSQSLSITCTVSGFSLSRYSVHWVRQPPGKGLEWLGMIWGGGSTDYNSALKSRLSISKDNSKSQVFLKMNSLQTDDTAMYYCARKDYGYSYFDYWGQGTTLTVSS
VL: DVLMTQTPLSLPVSLGDQASISCRSSQSIVHSNGNTYLEWYLQKPGQSPKLLIYKVSNRFSGVPDRFSGSGSGTDFTLKISRVEAEDLGVYYCFQGSHVPFTFGSGTKLEIKRADAAPTVS
For the molecule B1, the “wound closure / migration, MDA-MB-468” value in data set [1] was “failed to close the wound; also recorded: impaired”. The “wound closure / migration, BT16” value in data set [2] was “failed to close the wound; also recorded: impaired”. For the same molecule, the “wound closure / migration, NCI-H1573” value in data set [3] is recorded as “failed to close the wound; also recorded: impaired”. Further, in data set [4] (doses from 0.5 mg/kg to 10 mg/kg i.p.), the “non-selective accumulation or retention in healthy tissues” value is reported as “does not exhibit non-selective accumulation or retention in healthy tissues; also recorded: No non-specific retention”. Further, in data set [4] (doses from 0.5 mg/kg to 10 mg/kg i.p., even at the highest dose), the “detectability in organs after 7 days” value is given as “virtually undetectable in all organs after 7 days; also recorded: largely undetectable after 7 days”. In data set [4] (single dose 0.5 mg/kg i.p.), the “antibody-associated fluorescence in brain” value is “no fluorescence was detected in brain”; the “tissues with antibody-associated fluorescence” value was “observed in intestine, reproductive organs, liver, kidney, spleen, lung and heart”. The “specific accumulation / non-specific retention in healthy tissues vs isotype control” value in data set [4] (single dose 0.5 mg/kg i.p., 7 day period, 0.5 mg/kg) is recorded as “no specific accumulation; also recorded: no non-specific retention”. Moreover, the “clearance from organs by day 7” value in data set [4] (single dose 0.5 mg/kg i.p., 0.5 mg/kg) is reported as “largely cleared from all organs; also recorded: almost undetectable after 7 days”. The maximum tolerated dose entry in data set [5] (doses up to 10 mg/kg i.p.) is “not reached”. Besides, the “evidence of toxic effects” value in data set [5] (single i.p. dose 0.5, 1.0, 2.5, 5.0 and 10 mg/kg, up to 7 days and post mortem) is “No evidence of toxic effects; also recorded: no toxicity noted at any dose or any time point”. The “wound closure / migration, SW620” value in data set [6] is reported as “failed to close the wound; also recorded: impaired”. For the same molecule, the “wound closure / migration, AN3CA” value in data set [7] is recorded as “failed to close the wound; also recorded: impaired”. In addition, the “initial levels in tumour tissue vs reproductive tract of mice without tumours” value in the data set with ID8 ovarian tumour is given as 2 orders of magnitude.
